Data published in paper PMC11259713, “Splicing factor hnRNPA1 regulates alternative splicing of LOXL2 to enhance the production of LOXL2Δ13”.
Positions count from the first letter of the chain named. Numbers in names are those of the source.

Key:
Conditions in all cases: protein: recombinant; tags: His (pET-32a vector)
hnRNPA1-His (hnRNPA1A) [1] = target: T1, hnRNPA1-His (hnRNPA1A) (UniProt P09651-2 1-320); assay: pull-down; purified protein; BLI: PBS, 0.002% Tween-20, 0.02% BSA, temperature not stated; pull-down: lysate in 150 mM KCl, 0.5 mM DTT, 0.5% NP-40, 25 mM Tris-HCl pH 7.5, 4 C overnight
hnRNPA1-His (hnRNPA1A) [2] = target: T1, hnRNPA1-His (hnRNPA1A); assay: BLI; protein on Ni-NTA probe; KD only in figure; BLI: PBS, 0.002% Tween-20, 0.02% BSA, temperature not stated; pull-down: lysate in 150 mM KCl, 0.5 mM DTT, 0.5% NP-40, 25 mM Tris-HCl pH 7.5, 4 C overnight
S91A/S95A-His = S91A/S95A-His (UniProt P09651-2 1-320, S91A;S95A); assay: BLI; protein on Ni-NTA probe; affinity and amount higher than WT; KD only in figure; BLI: PBS, 0.002% Tween-20, 0.02% BSA, temperature not stated; pull-down: lysate in 150 mM KCl, 0.5 mM DTT, 0.5% NP-40, 25 mM Tris-HCl pH 7.5, 4 C overnight
S91D/S95D-His = S91D/S95D-His (UniProt P09651-2 1-320, S91D;S95D); assay: BLI; similar or stronger affinity than WT but reduced binding amount; KD only in figure; BLI: PBS, 0.002% Tween-20, 0.02% BSA, temperature not stated; pull-down: lysate in 150 mM KCl, 0.5 mM DTT, 0.5% NP-40, 25 mM Tris-HCl pH 7.5, 4 C overnight
hnRNPA1-His (hnRNPA1A) [3] = target: T1, hnRNPA1-His (hnRNPA1A); assay: BLI; RNA on streptavidin probe; lower KD than oligo2 but less protein bound; value only in figure; BLI: PBS, 0.002% Tween-20, 0.02% BSA, temperature not stated; pull-down: lysate in 150 mM KCl, 0.5 mM DTT, 0.5% NP-40, 25 mM Tris-HCl pH 7.5, 4 C overnight

T1 sequence (P09651 other isoform, or with tags, fused parts or gaps): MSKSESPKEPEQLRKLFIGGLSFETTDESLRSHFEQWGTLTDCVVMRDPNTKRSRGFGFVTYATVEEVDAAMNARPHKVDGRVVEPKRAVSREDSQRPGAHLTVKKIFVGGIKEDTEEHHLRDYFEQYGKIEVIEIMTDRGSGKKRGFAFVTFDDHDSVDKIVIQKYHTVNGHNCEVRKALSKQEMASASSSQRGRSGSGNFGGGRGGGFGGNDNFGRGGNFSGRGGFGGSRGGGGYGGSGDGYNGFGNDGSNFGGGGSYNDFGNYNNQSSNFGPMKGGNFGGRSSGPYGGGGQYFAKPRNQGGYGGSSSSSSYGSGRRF
Sequence of S91A/S95A-His (P09651 other isoform, or with tags, fused parts or gaps S91A;S95A | S91A S95A S91A S95A): as the sequence (P09651 other isoform, or with tags, fused parts or gaps) above, with S91A, S95A counted along it
Sequence of S91D/S95D-His (P09651 other isoform, or with tags, fused parts or gaps S91D;S95D | S91D S95D S91D S95D): as the sequence (P09651 other isoform, or with tags, fused parts or gaps) above, with S91D, S95D counted along it

B1: oligo1 (ssRNA)
RNA: AGCAGCCUCCUCUGCCCUGCUUCUCCCUAGGUUGUU
- binding result (hnRNPA1-His (hnRNPA1A) [1]): binds

B2: oligo2 (ssRNA)
RNA: ACAACUGCCACAUAGGUAAGGCCAGGCCGC
- binding result (hnRNPA1-His (hnRNPA1A) [2]): binds
- binding result (S91A/S95A-His): binds
- binding result (S91D/S95D-His): binds

B3: oligo2-U13C+A14C (ssRNA)
RNA: B2 RNA with U13C, A14C
- binding result (hnRNPA1-His (hnRNPA1A) [3]): binds
